The supplement of paper PMC6757056
± gives the standard deviation of the averaged measurements.

B1: library; a variant is named by its letters at N, in order (parent)
chain: GCUGUCACCGGUGCUUGGUACGUUAUAUUCAGCCGGUCUGAUGAGUCUNNNNNNAGACGAAACAGC

Key:
[1] = variants of: B1; test: normalized RNA/DNA level without ligand (relative to sTRSVctl = 100) (log10 (% of sTRSVctl)); HEK293T overexpressing SLC46A1; higher = less ribozyme self-cleavage, higher mRNA level; details: without (6R,S)-folinic acid; ligand present: no
Outline: (§1)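 Library plasmids carrying ribozyme switches linked to mCherry, or to eGFP in some ligand experiments, were transfected into HEK293T at 4 µg per 6-well well, with any ligand added 1 h earlier. Seventy-two hours on, total RNA was extracted with EDTA and reverse-transcribed, amplified, barcoded and sequenced. RNA level was RNA over DNA reads normalized to a spiked-in non-cleaving sequence or to the top sequences, then scaled and log-transformed. The top set was 25 sequences, the transform was ×100 and log10, and sequences needed ≥100 DNA reads.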

[2] = variants of: B1; test: normalized RNA/DNA level with ligand (relative to sTRSVctl = 100) (log10 (% of sTRSVctl)); HEK293T overexpressing SLC46A1; ligand concentration (+) RNA-Seq: 6 mM; higher = less ribozyme self-cleavage, higher mRNA level; details: with (6R,S)-folinic acid; ligand present: yes
Outline: as §1

Variant	normalized RNA/DNA level without ligand (log10) [1]	normalized RNA/DNA level with ligand (log10) [2]
UCUCCA	2.017 ± 0.0042	2.023 ± 0.0081
GCUAAC	1.975 ± 0.015	2.015 ± 0.007
GCUAAG	1.968 ± 0.003	2.024 ± 0.016
GCUAAA	1.992 ± 0.009	2.02 ± 0.028
ACUACC	2.03 ± 0.0033	2.01 ± 0.04
ACUACA	1.99 ± 0.021	2.01 ± 0.021
ACUACU	2.022 ± 0.02	2.041 ± 0.0021
ACUACG	1.938 ± 0.0043	2.006 ± 0.02
ACGCCG	2.0192 ± 0.00023	2.029 ± 0.013
ACGCCC	2.051 ± 0.0035	2.03 ± 0.059
ACGCCA	2.037 ± 0.012	2.02 ± 0.035
ACGUAU	1.943 ± 0.005	2.02 ± 0.008
ACGUAC	2.018 ± 0.0052	2.02 ± 0.046
GCUAGA	2.002 ± 0.0075	2.042 ± 0.012
GCUAGU	1.98 ± 0.024	2.01 ± 0.046
GCUAGC	2.035 ± 0.017	2.016 ± 0.012
GCUAGG	1.951 ± 0.016	2.031 ± 0.0073
ACUCAG	1.967 ± 0.0061	1.98 ± 0.036
ACUCAC	2.058 ± 0.007	2.045 ± 0.0072
UCGCCA	2.027 ± 0.0078	2.03 ± 0.023
UCGCCC	2.05 ± 0.039	2.04 ± 0.033
UCGCCU	2.08 ± 0.043	2.082 ± 0.016
UCGCCG	2.016 ± 0.0047	2.05 ± 0.032

Variant	normalized RNA/DNA level without ligand (log10) [1]	normalized RNA/DNA level with ligand (log10) [2]
CCUAUC	2.1 ± 0.023	2.0649 ± 0.0011
CCUAUG	2.04 ± 0.031	2.06 ± 0.028
CCUAUU	2.038 ± 0.0071	2.04 ± 0.022
CCUAUA	2.029 ± 0.0081	2.01 ± 0.033
ACGGCG	2.015 ± 0.0037	2.0489 ± 0.00014
ACGGCC	2.117 ± 0.009	2.06 ± 0.056
ACGGCU	2.048 ± 0.014	2.04 ± 0.044
CCGCUG	2.047 ± 0.0097	2.067 ± 0.012
CCGCUA	2.01 ± 0.019	2.02 ± 0.043
CCGCUU	2.04 ± 0.024	2.0508 ± 0.0014
CCGCUC	2.112 ± 0.0092	2.09 ± 0.081
UCUAUA	2 ± 0.032	2.04 ± 0.025
UCUAUC	2.07 ± 0.024	2.062 ± 0.0087
UCUAUG	1.832 ± 0.017	2.022 ± 0.0024
UCUAUU	2.048 ± 0.0024	2.046 ± 0.0024
ACGCGU	2.022 ± 0.0046	2.02 ± 0.018
ACGCGG	1.965 ± 0.004	2.03 ± 0.066
ACGCGA	1.986 ± 0.011	2.042 ± 0.0061
ACGCGC	1.997 ± 0.0046	2.01 ± 0.059
GCGGAA	1.978 ± 0.007	2.02 ± 0.048
GCGGAU	2.021 ± 0.0026	2.04 ± 0.042
GCGGAC	1.972 ± 0.0066	2.05 ± 0.029
UCGAUU	2.02 ± 0.03	2.04 ± 0.053

Variant	normalized RNA/DNA level without ligand (log10) [1]	normalized RNA/DNA level with ligand (log10) [2]
CCGGGG	1.985 ± 0.01	2.01 ± 0.049
CCGGGC	2.102 ± 0.01	2.073 ± 0.0025
CCGGGA	2.039 ± 0.0033	2.02 ± 0.054
CCGGGU	2.07 ± 0.036	2.05 ± 0.04
GCGUUA	2.003 ± 0.0039	2.02 ± 0.036
GCGUUC	2.017 ± 0.0029	2.034 ± 0.02
GCGUUG	2.009 ± 0.0022	2.05 ± 0.041
GCGUUU	2.037 ± 0.017	2.04 ± 0.022
GCGCAU	1.9847 ± 0.0014	2 ± 0.038
GCGCAG	2 ± 0.022	2.03 ± 0.027
GCGCAA	1.948 ± 0.0028	1.98 ± 0.027
CCUCAA	2.0335 ± 0.00095	2 ± 0.059
CCUCAC	2.0541 ± 0.0006	2.027 ± 0.013
CCUCAG	1.94 ± 0.024	1.96 ± 0.0042
CCUCAU	2.03 ± 0.025	2 ± 0.054
UCGGCG	1.997 ± 0.011	2.05 ± 0.046
UCGGCA	2.03 ± 0.029	2.04 ± 0.034
ACGUUG	1.936 ± 0.0063	2.03 ± 0.043
ACGUUC	2.07 ± 0.022	2.02 ± 0.037
GCUAUC	2.083 ± 0.0023	2.013 ± 0.019
GCUAUG	1.99 ± 0.022	2.02 ± 0.035
GCUAUU	2.054 ± 0.013	2.04 ± 0.041
ACGCAC	2.024 ± 0.016	2.03 ± 0.027

Variant	normalized RNA/DNA level without ligand (log10) [1]	normalized RNA/DNA level with ligand (log10) [2]
ACGCAG	1.934 ± 0.018	2.01 ± 0.027
ACGCAU	1.987 ± 0.012	2.01 ± 0.014
ACGCAA	1.988 ± 0.011	2.01 ± 0.031
UCUACG	1.891 ± 0.0021	2.01 ± 0.017
UCUACC	2.0547 ± 0.001	2.054 ± 0.018
UCUACU	2.019 ± 0.0065	2.03 ± 0.029
UCUACA	2.057 ± 0.0079	2.0488 ± 0.002
CCGCGA	2.06 ± 0.024	2.06 ± 0.034
CCGCGC	2.067 ± 0.012	2.05 ± 0.068
CCGCGG	2.031 ± 0.0025	2.0168 ± 0.0019
CCGCGU	2.05 ± 0.026	2.054 ± 0.015
GCGGGC	1.95 ± 0.045	1.959 ± 0.017
GCGGGA	2.041 ± 0.0095	2.06 ± 0.023
GCGGGG	2.054 ± 0.0092	2.055 ± 0.017
GCGGGU	2.05 ± 0.045	2.017 ± 0.012
GCGGUU	2.07 ± 0.0088	2.02 ± 0.05
GCGGUA	1.98 ± 0.017	2.011 ± 0.014
GCGGUC	2.06 ± 0.024	2.06 ± 0.056
GCGGUG	2.032 ± 0.0067	2.07 ± 0.07
ACGAUU	2.0259 ± 0.00039	2.03 ± 0.026
UCGCAC	2.04 ± 0.025	2.03 ± 0.048
UCGCAA	1.973 ± 0.017	1.998 ± 0.018
UCGCAG	1.921 ± 0.0076	2.01 ± 0.024

Variant	normalized RNA/DNA level without ligand (log10) [1]	normalized RNA/DNA level with ligand (log10) [2]
UCGGAC	2.048 ± 0.0021	2.0514 ± 0.00022
ACUAAU	1.985 ± 0.007	2.01 ± 0.03
ACUAGU	2.02 ± 0.02	2.05 ± 0.026
ACUAGA	1.969 ± 0.014	2.01 ± 0.039
ACUAGG	1.912 ± 0.015	1.99 ± 0.038
ACUAGC	2 ± 0.011	2.02 ± 0.025
ACGCUG	2.015 ± 0.0048	2.057 ± 0.015
ACGCUA	2.013 ± 0.018	2.03 ± 0.06
ACGCUC	2.053 ± 0.015	2.05 ± 0.036
CCGGAU	2.017 ± 0.0056	2.05 ± 0.059
CCGGAC	2.05 ± 0.0016	2.042 ± 0.016
CCGGAA	2.005 ± 0.0036	2.01 ± 0.052
CCGGAG	1.931 ± 0.0037	2.024 ± 0.011
CCGGCU	2.08 ± 0.029	2.051 ± 0.013
CCGGCG	2.05 ± 0.025	2.05 ± 0.038
CCGGCA	2.108 ± 0.021	2.049 ± 0.016
CCGGCC	2.094 ± 0.013	2.03 ± 0.013
GCGCGA	2.047 ± 0.011	2.052 ± 0.018
GCGCGG	2.064 ± 0.0074	2.03 ± 0.031
GCGCGU	2.055 ± 0.011	2.04 ± 0.056
GCGCGC	2.055 ± 0.0073	2.001 ± 0.011
UCUAAU	1.974 ± 0.0063	2.005 ± 0.0055
UCUAAC	2.013 ± 0.0071	2.031 ± 0.018
